Results as given in PMC12527946 (2025).

B1: Clu deletion mutant CC1 (natural protein)
chain 1: DQTVSDNELQEMSNQGSKYVNKEIQNAVNGVKQIKTLIEKTNEERKTLLSNLEEAKKKKEDALNETRESETKLKELPGVCNETMMALWEECKPCLKQTCMKFYARVCRSGSGLVGRQLEEFLNQSSPFYFWMNGDRIDSLLENDRQQTHMLDVMQDHFSRASSIIDELFQDRFFTREPQDTYHYLPFSLPHRRPHFFFPKSRIVR
chain 2: SLMPFSPYEPLNFHAMMDIHFHSPAFQHPPTEFIREGDDDRTVCREIRHNSTGCLRMKDQCDKCREILSVDCSTNNPSQAKLRRELDESLQVAERLTRKYNELLKSYQWKMLNTSSLLEQLNEQFNWVSRLANLTQGEDQYYLRVTTVASHTSDSDVPSGVTEVVVKLFDSDPITVTVPVEVSRKNPKFMETVAEKALQEYRKKHREE
modifications: deletion taken as helix α7 = 244-257 as printed; exact CC1 limits only in Fig. 3a; five interchain disulfides; six N-glycans Secreted from HEK293E, glycosylated, Ca2+-bound LDLR repeats, disulfides; C-terminal C-tag left out. Deletion 751-779 taken as printed, in the numbering of the long isoform
B2: VLDLR(28–797)Δ(751–779)-C-tag (VLDLR ectodomain) (receptor)
chain: not shown

Tests used:
Assay in all cases: ELISA
[1] = molecular target: VLDLR(28–797)Δ(751–779)-C-tag (VLDLR ectodomain) (human, UniProt P98155-2 28-797, Δ(751–779))
Clu mutant CC3 = Clu mutant CC3 (human, UniProt P10909 23-227; P10909 228-449)
Clu mutant DD1 = Clu mutant DD1 (human, UniProt P10909 23-227; P10909 228-449)
Clu mutant DD2 = Clu mutant DD2 (human, UniProt P10909 23-227; P10909 228-449)
Clu mutant DD3 = Clu mutant DD3 (human, UniProt P10909 23-227; P10909 228-449)
Clu mutant TL3 = Clu mutant TL3 (human, UniProt P10909 23-227; P10909 228-449)
TL4 = molecular target: TL4

Row | Binder | Kd [1] | Kd (Clu mutant CC3) | Kd (Clu mutant DD1) | Kd (Clu mutant DD2) | Kd (Clu mutant DD3) | Kd (Clu mutant TL3) | Kd (TL4)
1 | B1 | 662 nM | – | – | – | – | – | –
2 | B2 | – | 109 nM | 137 nM | 1190 nM | 1180 nM | 989 nM | 256 nM
